According to patent US20130171178A1 (US Dept. of Health and Human Services, published 2013):

Each binder was assayed against HLA-A2 MHC class I molecule (human) (assay: T2 binding assay, surface HLA-A2 by flow cytometry).
Description: Binding affinity to HLA-A2 of synthetic peptides derived from the XAGE-1 amino acid sequence was measured by using T2 cells. The T2 cell line is a T-B fusion hybridoma cell line deficient in TAP1 and TAP2 gene expression available from the ATCC under accession number CRL-1992. T2 cells suspended in Dulbecco's modified Eagles' medium (DMEM) containing 2.5% fetal calf serum (FCS) were incubated overnight with different concentrations of the peptides and 10 μg/ml of β2-microglobulin. The cells were washed twice with phosphate buffered saline (PBS) containing 2% FCS and incubated on ice with anti-HLA-A2 monoclonal antibody (BB7.2, produced by ATCC cell line HB-82) for 30 min. After a single wash, the cells were stained with FITC-labeled goat anti-mouse Ig antibody for 30 min on ice. The cells were washed twice, and expression of HLA-A2 was measured by flow cytometry. The expression level of HLA-A2 was determined as follows: mean fluorescent index (F.I.)=(mean fluorescent intensity of the sample with peptide−mean fluorescent intensity of the sample without peptide)/mean fluorescent intensity of the sample without peptide; mean fluorescent intensity=geometric mean fluorescent intensity of the sample stained with both 1st and 2nd antibody−geometric mean fluorescent intensity of the sample stained with 2nd antibody alone.
A series of peptides derived from xage-1 14 were discovered with enhanced binding to HLA-A2.

Row | FI50 [µM] | Binder
1 | 0.28 | GVMPSAPSPV [3M xage-1 14]
2 | 0.62 | GLMPSAPSPV [2L3M xage-1 14]
3 | 1.86 | GLFPSAPSPV [2L xage-1 14]
4 | 3.04 | YLFPSAPSPV [1Y2L xage-1 14]
5 | 2.36 | YVFPSAPSPV [1Y xage-1 14]

The binders below were run against HLA-A2 MHC class I molecule (human) (assay: T2 binding assay, surface HLA-A2 by flow cytometry (BB7.2)).

Row | F.I.50 [µM] | Binder
6 | > 50 | HTASPRSPVM (Synthetic 10-mer) [xage-1 57 peptide]
7 | > 50 | ATRVPEVWIL (Synthetic 10-mer) [xage-1 33 peptide]
